The data set deals with the molecule itself. In words: crystal structure.

This note sets out measurements from publication PMC5449587 (Nucleic Acids Research, 2017).

B1: Burkholderia thailandensis deoxyribonuclease II (enzyme)
chain: MAISPRDEQNRSVDLWFAYKVPKLTKDADSDSASGYEYVYYDRQVGAVQKSPNLMNDPKGALFYTLDSVFGDPGDTTGWILYNDEMPADANRSNNATLGHTKGVIAFDIASSSALWLLHSWPKYASPSVPGVPTPLYGQTFLCLSLDLATAGKLAAQMALHQQPQVYLPRTGGLDHTSPLYALTQPLNASAPGDSDSLDFKTRGGVPFKVIAKNRKWGKDFWNDLVGPTLKADMYVETWIRGKIPPVLDSDGVHKTYDIKFIDLRKLGAPWAWPETQDHAKWGITTTDNWVCVGDINRMVTQEKRGGGTIAFQDPKLWKALCETDLIIPPPGKTDAQARAMIRKTHEPAE
With B1, the binding result is “binds”.
